Legend:
Experiment in all cases: two-hybrid library CCmax;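 further: natural log of median RNA to DNA barcode read ratio; higher means stronger binding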
[1] = molecular target: T1, 4H906-AA; conditions: mean of both orientations
T1 chain: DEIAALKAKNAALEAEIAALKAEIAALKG

[2] = molecular target: T2, 4H1552-AA; conditions: mean of both orientations
T2 chain: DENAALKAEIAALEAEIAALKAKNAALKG

[3] = molecular target: T3, 4H3627-AA; conditions: mean of both orientations
T3 chain: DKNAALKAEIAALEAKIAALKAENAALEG

[4] = molecular target: T4, 4H993-AA; conditions: mean of both orientations
T4 chain: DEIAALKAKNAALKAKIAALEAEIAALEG

[5] = molecular target: T5, 4H1867-AA; conditions: mean of both orientations
T5 chain: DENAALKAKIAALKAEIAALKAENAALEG

[6] = molecular target: T6, 4H2277-AA
T6 chain: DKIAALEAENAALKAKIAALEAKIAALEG

[7] = molecular target: T7, 4H2754-AA; conditions: mean of both orientations
T7 chain: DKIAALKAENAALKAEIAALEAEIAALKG

[8] = molecular target: T8, 4H881-AA; conditions: mean of both orientations
T8 chain: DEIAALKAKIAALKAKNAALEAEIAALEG

[9] = molecular target: T9, 4H3844-AA; conditions: mean of both orientations
T9 chain: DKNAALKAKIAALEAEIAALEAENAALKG

[10] = molecular target: T10, 4H429-AA; conditions: mean of both orientations
T10 chain: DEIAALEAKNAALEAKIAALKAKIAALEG

[11] = molecular target: T11, 4H3427-AA; conditions: mean of both orientations
T11 chain: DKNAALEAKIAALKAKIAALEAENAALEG

[12] = molecular target: T12, 4H2165-AA; conditions: mean of both orientations
T12 chain: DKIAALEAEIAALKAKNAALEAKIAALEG

[13] = molecular target: T13, 4H2078-AA; conditions: mean of both orientations
T13 chain: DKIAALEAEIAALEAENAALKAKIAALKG

[14] = molecular target: T14, 4H335-AA; conditions: mean of both orientations
T14 chain: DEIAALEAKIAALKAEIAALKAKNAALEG

[15] = molecular target: T15, 4H3112-AA; conditions: mean of both orientations
T15 chain: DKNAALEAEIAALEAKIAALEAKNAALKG

[16] = molecular target: T16, 4H1086-AA
T16 chain: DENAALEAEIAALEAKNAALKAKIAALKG

[17] = molecular target: T17, 4H122-AA; conditions: mean of both orientations
T17 chain: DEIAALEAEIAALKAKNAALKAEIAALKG

[18] = molecular target: T18, 4H317-AA; conditions: mean of both orientations
T18 chain: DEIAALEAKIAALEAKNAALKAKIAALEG

[19] = molecular target: T19, 4H2617-AA; conditions: mean of both orientations
T19 chain: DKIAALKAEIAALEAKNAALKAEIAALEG

[20] = molecular target: T20, 4H342-AA; conditions: mean of both orientations
T20 chain: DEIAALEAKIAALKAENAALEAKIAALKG

[21] = molecular target: T21, 4H1135-AA; conditions: mean of both orientations
T21 chain: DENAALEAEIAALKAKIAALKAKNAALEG

[22] = molecular target: T22, 4H3921-AA; conditions: mean of both orientations
T22 chain: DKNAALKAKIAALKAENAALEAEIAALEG

[23] = molecular target: T23, 4H1324-AA; conditions: mean of both orientations
T23 chain: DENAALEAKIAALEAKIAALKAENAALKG

[24] = molecular target: T24, 4H2729-AA; conditions: mean of both orientations
T24 chain: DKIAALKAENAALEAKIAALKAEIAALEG

[25] = molecular target: T25, 4H1153-AA; conditions: mean of both orientations
T25 chain: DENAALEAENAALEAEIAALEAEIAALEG

[26] = molecular target: T26, 4H780-AA; conditions: mean of both orientations
T26 chain: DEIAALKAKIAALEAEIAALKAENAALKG

[27] = molecular target: T27, 4H1636-AA; conditions: mean of both orientations
T27 chain: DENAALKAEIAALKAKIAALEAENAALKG

[28] = molecular target: T28, 4H2642-AA; conditions: mean of both orientations
T28 chain: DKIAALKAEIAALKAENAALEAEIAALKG

[29] = molecular target: T29, 4H2944-AA; conditions: mean of both orientations
T29 chain: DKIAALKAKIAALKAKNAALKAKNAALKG

[30] = molecular target: T30, 4H3655-AA; conditions: mean of both orientations
T30 chain: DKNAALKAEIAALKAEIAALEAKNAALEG

[31] = molecular target: T31, 4H1352-AA; conditions: mean of both orientations
T31 chain: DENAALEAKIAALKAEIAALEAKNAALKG

[32] = molecular target: T32, 4H2354-AA; conditions: mean of both orientations
T32 chain: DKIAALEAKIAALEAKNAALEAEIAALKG

[33] = molecular target: T33, 4H234-AA; conditions: mean of both orientations
T33 chain: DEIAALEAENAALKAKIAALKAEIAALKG

[34] = molecular target: T34, 4H717-AA; conditions: mean of both orientations
T34 chain: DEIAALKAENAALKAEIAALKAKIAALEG

[35] = molecular target: T35, 4H2949-AA; conditions: mean of both orientations
T35 chain: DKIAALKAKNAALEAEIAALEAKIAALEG

[36] = molecular target: T36, 4H605-AA; conditions: mean of both orientations
T36 chain: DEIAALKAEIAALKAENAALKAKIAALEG

[37] = molecular target: T37, 4H2393-AA; conditions: mean of both orientations
T37 chain: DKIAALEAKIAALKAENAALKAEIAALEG

[38] = molecular target: T38, 4H678-AA; conditions: mean of both orientations
T38 chain: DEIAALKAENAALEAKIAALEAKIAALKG

[39] = molecular target: T39, 4H566-AA; conditions: mean of both orientations
T39 chain: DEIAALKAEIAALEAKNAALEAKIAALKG

[40] = molecular target: T40, 4H794-AA; conditions: mean of both orientations
T40 chain: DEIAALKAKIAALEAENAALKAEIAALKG

[41] = molecular target: T41, 4H3343-AA; conditions: mean of both orientations
T41 chain: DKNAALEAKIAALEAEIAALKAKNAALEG

[42] = molecular target: T42, 4H2575-AA; conditions: mean of both orientations
T42 chain: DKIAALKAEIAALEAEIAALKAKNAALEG

[43] = molecular target: T43, 4H2837-AA; conditions: mean of both orientations
T43 chain: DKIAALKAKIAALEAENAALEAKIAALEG

[44] = molecular target: T44, 4H2505-AA; conditions: mean of both orientations
T44 chain: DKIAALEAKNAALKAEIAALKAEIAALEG

[45] = molecular target: T45, 4H454-AA; conditions: mean of both orientations
T45 chain: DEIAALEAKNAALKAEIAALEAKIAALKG

[46] = molecular target: T46, 4H2466-AA; conditions: mean of both orientations
T46 chain: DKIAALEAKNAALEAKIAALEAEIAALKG

[47] = molecular target: T47, 4H2190-AA; conditions: mean of both orientations
T47 chain: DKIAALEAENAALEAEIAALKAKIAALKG

How did the interaction score [1] turn out when DENAALEAEIAALEAKNAALKAKIAALKG [4H1086-AA] was run?
Its interaction score is -1.8.

What about the interaction score [2] of the same binder?
Its interaction score is -0.495.

What about the interaction score [3] of the same binder?
The interaction score was -0.932.

And the interaction score [4]?
Its interaction score is -0.479.

And the interaction score [5]?
Its interaction score is -1.02.

And the interaction score [6]?
The interaction score was -2.16.

And the interaction score [7]?
Its interaction score is 0.514.

And the interaction score [8]?
Its interaction score is 1.89.

What about the interaction score [9] of the same binder?
Its interaction score is -0.082.

And the interaction score [10]?
The interaction score was 0.612.

And the interaction score [11]?
Its interaction score is -0.568.

And the interaction score [12]?
The interaction score was -1.24.

What about the interaction score [13] of the same binder?
Its interaction score is -1.42.

What about the interaction score [14] of the same binder?
The interaction score was -1.27.

And the interaction score [15]?
Its interaction score is -1.57.

And the interaction score [16]?
Its interaction score is -1.1.

What about the interaction score [17] of the same binder?
Its interaction score is -0.74.

And the interaction score [18]?
The interaction score was -0.992.

What about the interaction score [19] of the same binder?
The interaction score was 0.841.

What about the interaction score [20] of the same binder?
Its interaction score is 1.88.

What about the interaction score [21] of the same binder?
The interaction score was -0.938.

What about the interaction score [22] of the same binder?
Its interaction score is 2.16.

And the interaction score [23]?
Its interaction score is -0.552.

What about the interaction score [24] of the same binder?
The interaction score was 1.34.

What about the interaction score [25] of the same binder?
The interaction score was -0.756.

What about the interaction score [26] of the same binder?
The interaction score was -1.37.

And the interaction score [27]?
The interaction score was -1.62.

What about the interaction score [28] of the same binder?
The interaction score was 1.79.

What about the interaction score [29] of the same binder?
Its interaction score is -1.29.

What about the interaction score [30] of the same binder?
Its interaction score is -0.935.

And the interaction score [31]?
Its interaction score is -0.965.

And the interaction score [32]?
Its interaction score is -0.946.

What about the interaction score [33] of the same binder?
The interaction score was -1.17.

What about the interaction score [34] of the same binder?
Its interaction score is -1.78.

And the interaction score [35]?
Its interaction score is 0.739.

What about the interaction score [36] of the same binder?
The interaction score was -0.771.

What about the interaction score [37] of the same binder?
The interaction score was 1.89.

What about the interaction score [38] of the same binder?
Its interaction score is -0.364.

And the interaction score [39]?
The interaction score was -0.902.

And the interaction score [40]?
Its interaction score is -0.327.

And the interaction score [41]?
The interaction score was -1.72.

What about the interaction score [42] of the same binder?
The interaction score was 0.522.

What about the interaction score [43] of the same binder?
Its interaction score is 2.25.

And the interaction score [44]?
The interaction score was -1.28.

And the interaction score [45]?
Its interaction score is -0.949.

And the interaction score [46]?
The interaction score was -1.65.

And the interaction score [47]?
Its interaction score is 1.78.
